Source: publication PMC5440646, “T Cell Costimulation by CD6 Is Dependent on Bivalent Binding of a GADS/SLP-76 Complex” (Molecular and Cellular Biology, 2017)

B1: human CD6 fused to EGFP [human] / SH2 domain-containing leukocyte molecule of 76 kDa (SLP-76), endogenous [human (endogenous in Jurkat)] (parent)
chain 1: MALRNVPFRSEVLGWDPDSLADYFKKLNYKDCEKAVKKYHIDGARFLNLTENDIQKFPKLRVPILSKLSQEINKNEERRSIFTRKPQVPRFPEETESHEEDNGGWSSFEEDDYESPNDDQDGEDDGDYESPNEEEEAPVEDDADYEPPPSNDEEALQNSILPAKPFPNSNSMYIDRPPSGKTPQQPPVPPQRPMAALPPPPAGRNHSPLPPPQTNHEEPSRSRNHKTAKLPAPSIDRSTKPPLDRSLAPFDREPFTLGKKPPFSDKPSIPAGRSLGEHLPKIQKPPLPPTTERHERSSPLPGKKPPVPKHGWGPDRRENDEDDVHQRPLPQPALLPMSSNTFPSRSTKPSPMNPLPSSHMPGAFSESNSSFPQSASLPPYFSQGPSNRPPIRAEGRNFPLPLPNKPRPPSPAEEENSLNEEWYVSYITRPEAEAALRKINQDGTFLVRDSSKKTTTNPYVLMVLYKDKVYNIQIRYQKESQVYLLGTGLRGKEDFLSVSDIIDYFRKMPLLLIDGKNRGSRYQCTLTHAAGYP
chain 2: HPSPAPPDQLNTSSAESELWEPGERLPVRLTNGSSSCSGTVEVRLEASWEPACGALWDSRAAEAVCRALGCGGAEAASQLAPPTPELPPPPAAGNTSVAANATLAGAPALLCSGAEWRLCEVVEHACRSDGRRARVTCAENRALRLVDGGGACAGRVEMLEHGEWGSVCDDTWDLEDAHVVCRQLGCGWAVQALPGLHFTPGRGPIHRDQVNCSGAEAYLWDCPGLPGQHYCGHKEDAGAVCSEHQSWRLTGGADRCEGQVEVHFRGVWNTVCDSEWYPSEAKVLCQSLGCGTAVERPKGLPHSLSGRMYYSCNGEELTLSNCSWRFNNSNLCSQSLAARVLCSASRSLHNLSTPEVPASVQTVTIESSVTVKIENKESRELMLLIPSIVLGILLLGSLIFIAFILLRIKGKYALPVMVNHQHLPTTIPAGSNSYQPVPITIPKEVFMLPIQVQAPPPEDSDSGSDSDYEHYDFSAQPPVALTTFYNSQRHRVTDEEVQQSRFQMPPLEEGLEELHASHIPTANPGHCITDPPSLGPQYHPRSNSESSTSSGEDYCNSPKSKLPPWNPQVFSSERSSFLEQPPNLELAGTQPAFSAGPPADDSSSTSSGEWYQNFQPPPQPPSEEQFGCPGSPSPQPDSTDNDDYDDISAA
B2: human CD6 fused to EGFP [human] / T cell-specific adaptor protein (TSAd), endogenous [human (endogenous in Jurkat)] (parent)
chain 1: not shown
chain 2: B1 chain 2
B3: human CD6 fused to EGFP [human] / GRB2-related adaptor downstream of Shc (GADS), endogenous [human (endogenous in Jurkat)] (parent)
chain 1: MEAVAKFDFTASGEDELSFHTGDVLKILSNQEEWFKAELGSQEGYVPKNFIDIQFPKWFHEGLSRHQAENLLMGKEVGFFIIRASQSSPGDFSISVRHEDDVQHFKVMRDNKGNYFLWTEKFPSLNKLVDYYRTNSISRQKQIFLRDRTREDQGHRGNSLDRRSQGGPHLSGAVGEEIRPSMNRKLSDHPPTLPLQQHQHQPQPPQYAPAPQQLQQPPQQRYLQHHHFHQERRGGSLDINDGHCGTGLGSEMNAALMHRRHTDPVQLQAAGRVRWARALYDFEALEDDELGFHSGEVVEVLDSSNPSWWTGRLHNKLGLFPANYVAPMTR
chain 2: B1 chain 2

Variants of: B1
Experiment: co-immunoprecipitation (anti-CD6 IP), Western blot densitometry
Conditions: with SH2 domain-containing leukocyte molecule of 76 kDa (SLP-76), Jurkat cells, 3 × 10^6 cells per sample, pervanadate treated, CD6 MAb (MEM-98), three experiments, read off a plot

Going from chain 2 Y612F to chain 2 Y612F Y645F, the response falls from 6.4 AU to 0.5 AU.

Variant chain 2 Y645F has a response of 1.5 AU.

Variants of: B2
Experiment: as above
Conditions: with T cell-specific adaptor protein (TSAd), Jurkat cells, 3 × 10^6 cells per sample, pervanadate treated, CD6 MAb (MEM-98), three experiments, read off a plot

Compared with chain 2 Y612F, chain 2 Y612F Y645F is lower in response: 8.8 AU for the first, 4.4 AU for the second.

chain 2 Y645F was tested, and the response was 5.2 AU.

Variants of: B3
Experiment: as above
Conditions: with GRB2-related adaptor downstream of Shc (GADS), Jurkat cells, 3 × 10^6 cells per sample, pervanadate treated, CD6 MAb (MEM-98), three experiments, read off a plot

Compared with chain 2 Y645F, chain 2 Y612F is higher in response: 9.1 AU for the first, 10 AU for the second.

In the case of chain 2 Y612F Y645F, the response is reported as 0.9 AU.
